T1: α11β1 expressed on the surface of CHO-K1 cells (Homo sapiens, UniProt Q9UKX5)
T1 construct: expressed in transfected cells; host or cells: CHO-K1
T1 sequence (Q9UKX5 23-1188): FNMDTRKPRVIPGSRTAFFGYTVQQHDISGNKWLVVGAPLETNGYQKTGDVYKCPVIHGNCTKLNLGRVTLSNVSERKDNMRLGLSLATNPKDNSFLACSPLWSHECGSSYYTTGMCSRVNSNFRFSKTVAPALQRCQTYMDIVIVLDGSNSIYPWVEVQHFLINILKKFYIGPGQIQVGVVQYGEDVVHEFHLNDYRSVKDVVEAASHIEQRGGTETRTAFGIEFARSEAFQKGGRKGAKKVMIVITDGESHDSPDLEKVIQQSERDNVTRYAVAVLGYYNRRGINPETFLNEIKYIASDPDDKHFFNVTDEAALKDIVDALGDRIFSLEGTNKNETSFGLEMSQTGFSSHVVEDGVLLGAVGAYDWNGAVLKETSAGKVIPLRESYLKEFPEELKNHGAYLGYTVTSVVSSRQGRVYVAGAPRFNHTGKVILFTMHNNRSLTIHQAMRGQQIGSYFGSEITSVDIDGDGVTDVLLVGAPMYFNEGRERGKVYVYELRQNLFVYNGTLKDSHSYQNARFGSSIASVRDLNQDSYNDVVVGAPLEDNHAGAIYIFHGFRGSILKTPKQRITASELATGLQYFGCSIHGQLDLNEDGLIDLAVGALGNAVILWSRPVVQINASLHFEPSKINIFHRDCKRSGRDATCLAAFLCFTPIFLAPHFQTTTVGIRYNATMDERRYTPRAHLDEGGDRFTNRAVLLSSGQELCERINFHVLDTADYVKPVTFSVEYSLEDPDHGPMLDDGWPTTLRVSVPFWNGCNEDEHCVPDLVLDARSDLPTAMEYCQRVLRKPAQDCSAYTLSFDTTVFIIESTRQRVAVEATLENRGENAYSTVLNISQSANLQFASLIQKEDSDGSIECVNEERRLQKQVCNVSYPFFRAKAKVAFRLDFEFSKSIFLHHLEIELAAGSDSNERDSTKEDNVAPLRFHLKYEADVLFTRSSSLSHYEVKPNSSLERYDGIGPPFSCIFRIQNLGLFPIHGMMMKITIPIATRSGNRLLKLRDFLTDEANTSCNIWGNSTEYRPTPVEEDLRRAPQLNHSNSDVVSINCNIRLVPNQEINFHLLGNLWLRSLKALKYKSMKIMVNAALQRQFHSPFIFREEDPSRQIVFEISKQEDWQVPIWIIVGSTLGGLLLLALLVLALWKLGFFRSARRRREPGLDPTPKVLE


Assays:
[1] = biological target: T1, α11β1 expressed on the surface of CHO-K1 cells; assay: FACS antibody binding to CHO-K1 cells expressing human α11; conditions: binding Yes/No
Description: 200,000 cells (wild-type CHO-K1 cells or CHO-K1 cells expressing human α11) were incubated with each antibody at desired concentrations in FACS buffer for 30 min at 4° C. Then, the cells were washed with FACS buffer and incubated with secondary antibody at 1:100 dilution for 30 minutes at 4° C. Cells were then washed and fixed with 1% PFA in PBS for 20 minutes at room temperature; washed again and read on a cytometer in FACS buffer.
Since integrins are large, transmembrane receptors that exist in different conformational shapes, experiments were performed to confirm that the novel antibodies also bound cell-expressed α11β1. A CHO-K1 cell line that endogenously expressed high levels of the β1 subunit was engineered to stably express human α11 (CHO-K1 hu α11).
Binding EC50 was estimated using data from Fluorescence-activated cell sorting (FACS) performed with CHO-K1 hu α11β1 cells.

[2] = tested on: CHO-K1 cells expressing human α11; assay: Cell adhesion inhibition (xCelligence), type I collagen; assay type: cell-based; conditions: Yes/No
Method in brief: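 CHO-K1 cells expressing human α11 (0.6×10^6 cells/mL) were preincubated with mAbs across a concentration range for 20 min at 37° C, then seeded on wells coated with 100 ng/mL type I collagen and blocked with 3% BSA. Impedance-based adhesion was recorded over 6 h, and maximum adhesion was compared with untreated control.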

human α11β1 = human α11β1 (Homo sapiens, UniProt Q9UKX5); assay: ELISA binding to recombinant human α11β1; conditions: binding Yes/No
Sequence of human α11β1 (P05556 21-728 partner limits assumed, one chain of several): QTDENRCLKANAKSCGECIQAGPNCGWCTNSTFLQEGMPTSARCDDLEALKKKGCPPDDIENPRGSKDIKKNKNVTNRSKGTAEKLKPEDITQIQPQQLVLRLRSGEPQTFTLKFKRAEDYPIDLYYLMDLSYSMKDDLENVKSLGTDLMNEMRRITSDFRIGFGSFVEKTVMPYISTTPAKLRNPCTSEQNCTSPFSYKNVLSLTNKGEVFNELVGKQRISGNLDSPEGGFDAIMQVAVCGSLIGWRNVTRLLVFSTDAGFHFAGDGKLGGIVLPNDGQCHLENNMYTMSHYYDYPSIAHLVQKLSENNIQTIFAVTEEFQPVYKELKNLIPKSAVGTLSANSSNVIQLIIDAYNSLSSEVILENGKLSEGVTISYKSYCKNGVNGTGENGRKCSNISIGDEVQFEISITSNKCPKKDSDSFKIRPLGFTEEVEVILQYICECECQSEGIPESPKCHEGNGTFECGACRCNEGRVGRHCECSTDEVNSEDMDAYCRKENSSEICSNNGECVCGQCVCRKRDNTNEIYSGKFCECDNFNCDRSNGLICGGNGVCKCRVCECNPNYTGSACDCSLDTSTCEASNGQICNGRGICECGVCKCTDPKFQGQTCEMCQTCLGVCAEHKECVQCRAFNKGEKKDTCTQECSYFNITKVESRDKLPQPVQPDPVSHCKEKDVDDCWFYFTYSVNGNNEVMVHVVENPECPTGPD
Description: 0.25 μg/mL of target antigen (recombinant human or mouse α11β1) was plated in a 96-well plate over night at 4° C. Plates were washed (PBS with 0.1% Tween-20), blocked (PBS with 2% BSA and 0.05% Tween-20) for 1 hour at room temperature and incubated with a range of antibody concentrations for 1 hour at room temperature. Subsequently, plates were washed and incubated with biotinylated anti-rabbit/mouse/human IgG in a 1:1000 dilution buffer and incubated for 1 hour at room temperature. After washing the plates, Streptavidin HRP was added at 1:200 in dilution buffer and incubated for 1 hour at room temperature. Ultra TMB ELISA substrate solution was added and the plates incubated for 5 minutes on a plate shaker. The reaction was stopped by adding stop solution to each well and plates were read at 450 nm.

| Molecule | CHO-K1 FACS [1] | Inhibition of CHO-K1 adhesion to collagen [2] | Human α11β1 ELISA (human α11β1) |
| --- | --- | --- | --- |
| 6-B21: mouse anti-α11β1 mAb; VH SEQ ID NO: 123, VL SEQ ID NO: 124 (antibody, V domains shown) VH: EVQLQQSGPELVKPGASVKISCKASGYTFTDYYMNWVKQSHGKSLEWIGDINPHNGGTSFIQKFKGKATLTVDKSSSTAYMELRSLTSEDSAVYYCAPLGRKEGFAYWGQGTLVTVSA VL: DTVLTQSPASLVVSLGQRATISCRASKSVSTSGYSYMHWYQQKPGQPPKLLIYLASNLESGVPARFSGSGSGTAFTLNIHPVEEEDAATYYCQHSRELPYTFGGGTKLEIK | No | No | Yes |
| 7-H14: mouse anti-α11β1 mAb; VH SEQ ID NO: 121, VL SEQ ID NO: 122 (antibody, V domains shown) VH: QVQLQQPGAELVRPGASVKLSCKPSGYTFTSYWMNWVKQRPGQGLEWIGMIDPSDSETHYNQMFKDKATLTVDKSSNTAYMQLSSLTSEDSAVYYCAQIYYAYDKAYWGQGTLVTVSA VL: DIVMSQSPSSLAVSVGEKVTMSCKSSQSLLYSSHQKNYLAWYQQKPGQSPKLLIYWASTRESGVPDRFTGSGSGTDFSLTISSVKAEDLAVYYCQEYYSWTFGGGTKLEIK | Yes | No | Yes |
| 6-A12: mouse anti-α11β1 mAb; VH SEQ ID NO: 127, VL SEQ ID NO: 128 (antibody, V domains shown) VH: QVTLKESGPGILQPSQTLSLTCSFSGFSLRTFAMGVGWIRQPSGKGLEWLAHIWWDDDKYYNPALKSRLTISKDTSKNQVFLKIANVDTADTATYYCARMPLTFYFDYWGQGTTLTVSS VL: DVLMTQTPLSLPVSLGDQASISCRSSQSIVHSNGNTYLEWYLQKPGQSPKLLIYKVSTRFSGVPDRFSGSGSGTDFTLKISRVEAEDLGVYYCFQGSHVPFTFGGGTKLEIK | Yes | Yes | Yes |
| 9-B11: mouse anti-α11β1 mAb; VH SEQ ID NO: 115, VL SEQ ID NO: 116 (antibody, V domains shown) VH: QVQLQQPGAELVRPGTSVKLSCKASGYTFTSYWMHWVQQRPGQGLEWIGVIDPSDSYTNYNQKFKGKATLTVDTSSSSAYMQLSSLTSEDSAVYYCARDDVAMDYWGQGTSVTVSS VL: DIVVTQSPASLAVSLGQRATISCRASESVDSYGNSFIHWYQQKPGQPPKLLIYRASNLKSGIPARFSGSGSRTDFTLTINPVEADDVATYYCQQSNEDPYTFGGGTKLEIK | Yes | Yes | Yes |
| 6-M8: mouse anti-α11β1 mAb; VH SEQ ID NO: 129, VL SEQ ID NO: 130 (antibody, V domains shown) VH: QVQLQQPGAELVMPGASVKLSCKASGYTFTNYWMHWVKQRPGQGLEWIGEIDPSDSYTNYNQKFKGKATLTVDKSSSTAYMQLSSLTSEDSAVYYCTRQGSTYAWGQGTSVTVSS VL: DIVMTQAAFSNPVTLGTSASISCRSSKSLLHSNGITYLYWYLQKPGQSPQLLIYQMSNLASGVPDRFSSSGSGTDFTLRISRVEAEDVGVYYCAQNLELPPTFGGGTKLEIK | No | No | Yes |
| 6-O12: mouse anti-α11β1 mAb; VH SEQ ID NO: 117, VL SEQ ID NO: 118 (antibody, V domains shown) VH: EVKLEESGGGLVQPGGSMKLSCAASGFTFSDAWMDWVRQSPEAGLEWVAEIRNKAHNPATYYAESVKGRFTISRDDSKSSVYLQMNSLRAEDTGIYYCTLVAPDAMDYWGQGTSVTVSS VL: DIVMSLSPSSLAVSVGEKVTMSCKSSQSLLYSRNQKNYLAWYQQKPGQSPKLLIYWASTRASGVPDRFTGSGSGTDFTLTISSVKAEDLAVYYCQQYYSYPYTFGGGTKLEIK | No | No | Yes |
